Measurements: a protein production outcome set (Wang et al. 2014)

Assay: label from the status in PepcDB records

Sequence | protein production
MTTYLIIGANRVGQLVARQLATESATVRLLHDGKETLPSDLATQVTELTGDLTQEATYTAALQDQPIIFSALTGMDVDLAFEALFDAQYHQRLTFQRFVMLSTAGVDQEVTGDLAYPGITDVAEYLKQQRYAAKLVDEAEFPYTILRPVTLADSPRRDPQIIKEGAAVPAGTVSRETVAQVAVSLLQAGGADYQSLAICLEHHHHHH | failed
MTTYTFDQVEEAIEQLYPDFTINTIEISGEGNDCIAYEINGNFIFKFPKHSRASINLLNEVTVLKTIHNELSLPIPEVVFTGMPSEMCQMSFAGFTKIKGVPLTPLLLKNLPKQSQDQAAKDLARFLSELHSINISGFKSNLVLDFREKINEDNKKIKKLLSRELKGHQMKKVDDFYRDILDNEIYFKYYPCLIHNDFSSDHILFDTEKNTICGIIDFGDAAISDPDNDFISLMEDDEEYGMEFVSKILNHYKHKDIPTVLEKYMMKEKYWSFEKIIYGKEYGYMDWYEEGLNEIRSIKIK | not failed
MTVAGLWLFAMALGASALGGMLGMASGIFIVPLLVLWGIDVHAAIAASIVSVIACSCGSAAAFLQSGLTHVRLAVVLETATTLGALTSVFLVGAVPVAALYALFAVVLVVSAWQMLARRRDPARASGAPACRWAGALRLHGRYRDPAAGRHRRYRVQRLPLGMSLMYGAGVLSALLGIGSGVLKIPAMDSALRLPLKVSSATSNFMIGVTAAASAAVYFARGEIDPAVAGPVALGSVAGSVLGARILMHVSGERLRLLFVAVLALLAVQMLLMALGVQWPGGGR | failed
MTVEYTASDLATYQNEVNEQIAKNKAHLESLTHPGSKVTFPIDQDISATPQNPNLKVFFFDIDNCLYKSSTRIHDLMQQSILRFFQTHLKLSPEDAHVLNNSYYKEYGLAIRGLVMFHKVNALEYNRLVDDSLPLQDILKPDIPLRNMLLRLRQSGKIDKLWLFTNAYKNHAIRCLRLLGIADLFDGLTYCDYSRTDTLVCKPHVKAFEKAMKESGLARYENAYFIDDSGKNIETGIKLGMKTCIHLVENEVNEILGQTPEGAIVISDILELPHVVSDLF | not failed
MTVIDDRDMMGAESSELSEAGARDYFELLKPRVMSLVVFTAFAGLVLAPGEINPILGLIAILCIAVGAGASGALNMWYDADIDAVMTRTAKRPIPSGRIAPREALAFGLTLSAFSVVILGLAVNWFSAGLLAFTIFFYAVVYTMWLKRSTPQNIVIGGAAGAFPPMLGWACVTGGVSLDSVILFLIIFLWTPAHFWALALFKMRDYGAVGIPMMPNVAGERSTKNQMIVYAVLTAAAAVAPFFTGLASAGYGIFAAVLSAIFVYCSFDVRRMPEGDEKMLPAKKMFAYSVLYLFAIFSGLLADHFAPALKAVISGVL | failed
MTVIIAGERSGAGKTTITLAMLAYLARQKLRVQSFKVGPDYIDPMFHSQITGRPCRNLDPFLTSEAYVQRCFHYHSQGTPYSLIEGVMGLFDGVPYQGLTDYSSTAHIARLLNLPIVFVMDCQRLSGSVAAIVQGYRHWQPGVNLVGVILNRVGGDRHLELLKIALEPLRIPILGVFFRQQDLTLPDRHLGLVPCGELPQIQQYFDQLAHVAAQQLDWPKLLPLLETPRNLPSPMSLFDVPQKSPQARLAIAQDQAFNFYYADNLDLLTHCGFELIPFSPLEDTELPPAIDGVYLGGGFPELFAEQLSQNQALKDQLKTLIHQGLPTYGECGGLMYLSQSLTNFEGQIFPMLEMLPTAVTMGGKLSLGYRQAQVVNSHSWLWQTESLRGHEFHRSQMTKLPNQALYRQRGLLAIDQNTTDGWCVGSVQASYLHLHWGSQISTVEKFRAACLAFQKKLSYLGKHPPFKSVPLRNTGGDAHGRE | failed
MTVKTEAAKGTLTYSRMRGMVAILIAFMKQRRMGLNDFIQKIANNSYACKHPEVQSILKISQPQEPELMNANPSPPPSPSQQINLGPSSNPHAKPSDFHFLKVIGKGSFGKVLLARHKAEEVFYAVKVLQKKAILKKKEEKHIMSERNVLLKNVKHPFLVGLHFSFQTADKLYFVLDYINGGELFYHLQRERCFLEPRARFYAAEIASALGYLHSLNIVYRDLKPENILLDSQGHIVLTDFGLCKENIEHNSTTSTFCGTPEYLAPEVLHKQPYDRTVDWWCLGAVLYEMLYGLPPFYSRNTAEMYDNILNKPLQLKPNITNSARHLLEGLLQKDRTKRLGAKDDFMEIKSHVFFSLINWDDLINKKITPPFNPNVSGPNDLRHFDPEFTEEPVPNSIGKSPDSVLVTASVKEAAEAFLGFSYAPPTDSFL | failed
MTVNAKTSPSAGNTWRDLPAAQQPEYPDTEALRAVIADLESYPPLVFAGECDQLRARMAAVAKGEAFLLQGGDCAEAFDAVSADHIRNKLKTLLQMGAVLTYAASVPVVKVGRIAGQYSKPRSKPTETRDGVTLPTYRGDSVNGFDFTEAARIPDPERLKRMYHASASTLNLVRAFTTGGYADLRQVHAWNQDFVKSSPSGQRYEQLAREIDNALNFMRACGTDPAEFQTVEFFSSHEALLLDYESALTRVDSRTGQLYDVSGHMVWIGERTRQLDHAHIEFASRIRNPIGIKLGPSTTAEEALQYIERLDPEREPGRLTFIVRMGADKIRDKLPELVEKVTASGATVAWITDPMHGNTYEAASGHKTRRFDDVLDEVKGFFEVHKSLGTHPGGIHVELTGDDVTECVGGGDEIFVDDLHQRYETACDPRLNRSQSLDLAFLVAEMYRDQ | not failed
MTVNMTKGQAISLQKNDGGTLTAVRMGLGWQAAPRRGLFGSRTREIDLDASAVLFADKQPVDVVFFRHLVSDDGSVRHTGDNLVGGVGQGGDDEAILVDLQRLPVHIDQIVFTVNSFTGQTFQEVQNAFCRLVDETNGEELARYTLAGGGQYTAQIMAKVHRAGAGWQMTALGTPSNGRTFQDLMPAILPHL | failed
MTVPWHLVALAFAVCLVVAAPGFLRVYYFVSLCYAGAIAAQSLVFALLFSTTISGWVTLQLLLLLIYGVRLGAFLAVRERNPAYAAELARAERRTAELKLWHQIAIWLGVSLLFTLLFLPALLTLSLQAQGAWPVSTPLGVMIMAVGLWVESLADWQKYRYKAEHPSHYCDTGLYRLVRCPNYLGEMVFWFGVWFSGLSAYGSGGAWTLTLLGMLYILALMTAAAAGLERKQDERYGDRPDYQEYVRSVPILFPWVPLFTLRKLLIRFR | failed
MTVTAPNALNFECETGNYHTFCPISCVAWLYQKIEDSFFLVIGTKTCGYFLQNAMGVMIFAEPRYAMAELEEGDISAQLNDYEELKRLCLEIKRDRNPSVIVWIGTCTTEIIKMDLEGLAPKLEAEIGIPIVVARANGLDYAFTQGEDTVLAAMAARCPTSTAISDPEERNPIQRLLNFGKKKEEVQAQSSQYHPHPPLVLFGSLPDPVVTQLTLELKKQGIKVSGWLPAKRYTELPVIDEGYYVAGVNPFLSRTATTLIRRRKCQLITAPFPIGPDGTRTWIEQICATFGIQPQGLAEREAETWQKLSDYLELVRGKSVFFMGDNLLEISLARFLIRCGMRVLEIGIPYMDKRYQAAELALLSQTCAEMGHPLPTIVEKPDNYNQLQRIKALQPDLVITGMAHANPLEARGISTKWSVEFTFAQIHGFGNARDILELVTRPLRRNQALAGLGWQKLVAHLEHHHHHH | failed
MTVTLKNDYLTVQINEKGAELSSVKANDGIEYIWQADPAVWGRHAPVLFPFVGRLKDDQFQVEDQTYPMGQHGFARDMDFEAVEQDDQHVIMELNSDTETLQKFPFEFKLRLHFTLKDHELIEHYEVVNPDSKKDLLFSIGGHPGFNLNLGDNQIQMEDTHIRIAPKQVYNQIPLKAPYTDPKNPIKFDATTPLDLTHALFKDDAIILDLKGEQITLMTENEVNNHGIAFTVANAPYLGIWSPYPATANFVCLEPWWGIADTVNFNGELKDKLGVNRLAAQETFNQEFSMSFF | failed
MTVVVEFLGTGGAHSEDLGSSSARISLPNSQNMLIDFGPDTYFSVNTRKLQFDAIFITHAHLDHVGGLERLFFSVAFKKQRLIKLYVPVSLVTRLHQIFGMAGSQVAEGGKNFWDCFQLIPITDYFYFSGYRFNVFPVRHHFPGEAFGLALPGCFVYTGDTRPIPEQLVAHAGRGELIFHDATTSSNPAHSALDDLKREYALHDVLDRLVLYHFDSAVERELAETQGWKTVRLGVTYQFGCRHVCSGSMCSNAELSSLGTNKALHNERGTKLPRPSIKKDEFV | failed
MTYGEAYLEGWKNIFNYEGVSNRFEFWSFMIGSGVICLLPLLCWWLAVTINNDYGVFIFFALPVSFILTLIFAVPAIALAVRRMHDIGYSGWWVTIAVLIPVTGVILLILCCLPSKSQDQA | failed
MTYNVTALVGNAGNQDTSGVRVDFVDNGVRVGSYTIPLLRSGETTTVVFNWTPMTVGSHTLQLIIDPENHIQETNETNNRIIL | failed
MVAATSQNTFDSPRSPLYNFTMDIRPLSDVAGVILVGGRSRRMGRDKALIPLGGKPLVERVIDAFRPLFERILLVGDRGERFASYGLPVFPDIHPGSALGGLYTGLVRAGTPHVFVSACDVPWPDPRVIARLCSLREGFDVVVPRTVGGSEPLFAVYGTGCLPAMERMLREGNYRIYDFYPEVRTRYVEQAELADLVTPARTFVNVNTPEEFETIRNREEGMAIKAVSFVAKSGTGKTTLLEKVIAELKGRGYRIGVIKHDAHRFDIDHPGKDSHRLAAAGADTMLIASPEKLALVKKYDESPPLDELLATYFGDVDIVLTEGFKKSSLPKIEVHRMERSATLLCRGEEHDPTLVAVASDAALALDVPVFDLNNPAQVADFVERTFLAAGAALEHHHHHH | not failed
MVALRGKEIDAFLARPDAGRPIVLLYGPDAGLVRERADALIASAVDDPNDPFSLVRLDGDELSAEPSRLVDEAMTVPLFGGQRAIRVRAGSRSFASGIDTLAEMGVKDCRIVIEAGELRPESPLRKACERAKTAVAIGCYPDTERDLAKLMDDELRIANLRIAQDARAALMSFLGGDRQASRNELRKLTLYAHGKGEITLEDVMAVVADASELKLDPIVDGAFAGRPDIVETEFAKAMIAGTYPGVIISAAQRQAAWLHKSALAIADGQPASAVLDGGFPRLHFSRKPAVETALRNFSVARLAAIIEQLATAALDTRKQSTLAAAIAQRTLMAIAANAKRRGLEHHHHHH | failed
MVANLPALFSLGVFVGVILLIMSEKIHLTIAAFLGALILVFTHVITLKEGIDYISQSYATLALFFGVMVLVRSFEPTKIFEYLATQMVLLAKGSGKLLMLGVIAITTPICAVLPNATTVMLLAPLIPPLAQEIGVDFVPILILMVFVANSAGLLTLVGDPATFIVGDAINISFNDYLFKLSFMGVLAIVSIVVITPFLFRHIWRSRFTHLEDLPHPQINHPKVLMAGGVIITLVLIFFVIGESLPVPIPPASVALMGACLALLLASQSKIDTVHNILRDVDWSTLIFFMSIFVIIGSLEKTGVTASLAQLLAVVVGQNIAFGAIVLVFTVGLLSSVVPNIPLVVAMVPLLKQYVVNIGFAGPEILGANFDGQLPAEVLPLFYAMMFGATLGGNGTLVGASSNIVAAGISEQHGRPISFHRFLRYGLPVMAVQLVVAALFVAWLMFTQQG | failed
MVANLVTVVIVNYNSGEMLGKCVEHLLKSTVPIQIIISDNASSDNSLALLEQSELNKQTITIHRNNSNYGFSYANNAVFTKISTPFILYLNPDCFVENDTIENLLHTMHQHNDAGMVGCLVNNMDGSVQIGCCGLTPTPARVLNQLLKLSKIFPNNSKFGGYLFSKEKLPTKPTEVELISGSCMFVRKKAIDEVGLLDDNYFLYCEDYDWFYRFTQSNWKIIFNPNTKVTHIKSFSTKQIPFKVLLYKAKGMWRFYNKFFKENSSPATTLIIRVGIIARFFSLSGLLLFKKLLRTTS | failed
MVAYPGPMPRSPSPGQTPDAPTSGGGSTDSTRQRIVAAAKEEFARHGIAGARVDRIAKQARTSKERVYAYFRSKEALYAHVAERETTALIEATQLDPADLPGYAGILFDHFAARPDHYRLITWGRLELAESADNTSGPLQATIAGKLDKLRDAQRIGLLDPAWDPVDVLALINQIAMTWAGQPEIAAAAADQAVDPSVTARRAALVTAVEHMFPRPDRDQRPNRLT | not failed
